Where a chain is given by its changes, count along the chain named. Like-named read-outs stand apart in the source and are kept apart here.

As usually defined, the EC50 is the concentration at which the effect is half-maximal.

The target of assay [1] is T1, Cynomolgus monkey DLL3 on HEK293 cells (HEK293-cyno DLL3) (Cynomolgus monkey, UniProt Q9NYJ7 27-618 (human entry)).
T1 chain: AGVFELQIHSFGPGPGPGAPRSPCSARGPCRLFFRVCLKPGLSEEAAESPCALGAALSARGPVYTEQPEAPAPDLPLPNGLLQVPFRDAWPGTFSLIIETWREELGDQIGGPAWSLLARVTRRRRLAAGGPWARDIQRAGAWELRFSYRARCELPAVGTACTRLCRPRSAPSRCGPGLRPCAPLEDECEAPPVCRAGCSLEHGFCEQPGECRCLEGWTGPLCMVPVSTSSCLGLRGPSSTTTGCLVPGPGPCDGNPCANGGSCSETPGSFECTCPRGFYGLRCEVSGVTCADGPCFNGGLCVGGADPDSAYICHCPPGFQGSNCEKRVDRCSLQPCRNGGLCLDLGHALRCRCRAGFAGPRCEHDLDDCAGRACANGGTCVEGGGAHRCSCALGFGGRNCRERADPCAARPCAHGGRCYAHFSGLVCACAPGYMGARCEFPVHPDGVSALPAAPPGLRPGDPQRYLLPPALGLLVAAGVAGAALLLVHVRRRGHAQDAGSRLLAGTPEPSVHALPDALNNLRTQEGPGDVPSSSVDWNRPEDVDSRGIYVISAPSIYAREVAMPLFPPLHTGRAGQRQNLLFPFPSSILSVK
Kind of assay: flow cytometry, HEK293-cyno DLL3 cells. How it is done: (§1) SHP-77 and HEK293-cyno DLL3 cells were cultured. The culture medium for SHP-77 cells were RPMI1640+10% FBS, and the culture medium for HEK293 cyno DLL3 cells was DMEM+10% FBS+200 μg/ml Hygromycin. The cells were cultured in a T75 cell culture flask at a 37° C. 5% CO₂ incubator. When using cells, they are washed with sterile DPBS, digested with 0.25% trypsin EDTA for about 5 minutes, and then stopped with a complete medium.
(§2) The digested cells were centrifuged at 1000 rpm for 5 min at room temperature. The supernatant was discarded and the cells were resuspended in 100 μL of 1% BSA (in PBS). The cells were counted and adjusted to a cell density of 1E6/m. The dilute cells were seeded in a 96-well round-bottom culture plate (corning 3799), and centrifuged at 1500 rpm for 5 min at 4° C. The supernatant was discarded and the cells were stored at 4° C. until use. Antibody samples to be tested were diluted with 1% BSA (in PBS) at a starting concentration of 100 nM, downwards by a 10-fold gradient for 7 concentrations. The cells were resuspended with the diluted antibody at 100 μL/well and incubated for 1 hour at 4° C. The cells were centrifuged at 1500 rpm for 5 minutes at 4° C. and the supernatant was discarded. The cells were resuspended and washed with 160 μL of 1% BSA (in PBS), centrifuged at 1500 rpm for 5 minutes at 4° C. The supernatant was discarded. The secondary antibody (goat anti human IgG Fc PE) was diluted 1:200 with 1% BSA (in PBS) according to the manufacturer's instructions and the cells were resuspended with the diluted secondary antibody. 100 µL/well, and incubated for 0.5 h at 4° C. The cells were centrifuged at 1500 rpm for 5 minutes at 4° C. and the supernatant was discarded. The cells were resuspended and washed with 160 μL of 1% BSA (in PBS), centrifuged at 1500 rpm for 5 minutes at 4° C. The supernatant was discarded. The cells were resuspended in 100 μL of 1% BSA (in PBS), and filtered across a 300 mesh gauze. The mean fluorescence intensity of the PE channels was measured by flow cytometry.
(§3) The analyzed mean fluorescence intensity was imported into Graphpad to analyze the median-binding concentration (hereinafter referred to as EC50) of antibody and cell and the top mean fluorescence intensity (Top MFI).
(Flow cytometry measures light scatter and fluorescence of single cells or particles in a stream.)

Assay [2] has as its target T2, human DLL3 on SHP-77 cells (human, UniProt Q9NYJ7 27-618).
T2 construct: also called DLL3-expressing cells (SHP-77)
T2 sequence: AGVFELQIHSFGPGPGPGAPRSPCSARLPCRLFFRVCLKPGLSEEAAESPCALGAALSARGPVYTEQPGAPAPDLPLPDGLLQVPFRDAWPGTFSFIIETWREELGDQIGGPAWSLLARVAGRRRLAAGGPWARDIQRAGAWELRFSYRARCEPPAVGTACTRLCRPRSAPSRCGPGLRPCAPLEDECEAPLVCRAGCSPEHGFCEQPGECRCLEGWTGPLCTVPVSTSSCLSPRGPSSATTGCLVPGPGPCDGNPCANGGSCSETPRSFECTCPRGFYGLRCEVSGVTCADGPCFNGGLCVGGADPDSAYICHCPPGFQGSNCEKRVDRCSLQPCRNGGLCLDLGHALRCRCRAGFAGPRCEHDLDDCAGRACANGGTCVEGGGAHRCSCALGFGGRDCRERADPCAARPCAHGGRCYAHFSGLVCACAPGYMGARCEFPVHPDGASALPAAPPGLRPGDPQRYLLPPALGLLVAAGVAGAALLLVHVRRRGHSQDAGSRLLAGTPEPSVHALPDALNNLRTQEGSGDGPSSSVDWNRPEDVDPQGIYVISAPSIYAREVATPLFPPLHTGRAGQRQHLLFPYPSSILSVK
The assay is described as follows: flow cytometry, SHP-77 cells. How it is done: as §1, §2, §3

The target of assay [3] is T2, human DLL3 on SHP-77 cells. Kind of assay: flow cytometry, SHP-77 cells. How it is done:
SHP-77 cells were cultured. The culture medium for SHP-77 cells was RPMI1640+10% FBS. The cells were cultured in a T75 cell culture flask at a 37° C. 5% CO₂ incubator. When using cells, they are washed with sterile DPBS, digested with 0.25% trypsin EDTA for about 5 minutes, and then stopped with a complete medium.
as §2, with “plated” for “seeded”, “antibody,” for “antibody.”
as §3
The source holds these as a separate data set.

B1: 26C4D2 mouse hybridoma-derived anti-DLL3 chimeric antibody (antibody, V domains shown)
VH: QVQLQQPGAELVKPGASVKLSCKASGYSFTSYWMHWVKQRPGQGLEWIGMIHPTLGDTNYNEKFKSKATLTVDKSSSTAYMELSSLTSEDSAVYYCARLGSLSMMDYWGQGTSVTVSS
VL: DIQMTQTTSSLSASLGDRVTISCSASQGISNYLNWYQQKPDGTVKLLIYYTSSLHSGVPARFSGSGSGTDYSLTISNLEPEDIAIYYCQQYSKFPYTFGGGTKLEIK
As to B1, in assay [1], the EC50 worked out at 0.43 nM and the “Top MFI” value came out at 421 MFI. Moreover, in assay [2], the concentration giving a half-maximal response (EC50) is 0.6 nM and the “Top MFI” value is 1050 MFI.

B2: 46A5A4 mouse hybridoma-derived anti-DLL3 chimeric antibody (antibody, V domains shown)
VH: QVQLQQSDAELVKPGASVKISCKVSGYTFTDHTIHWMKQRPEQGLEWIGYIYPRDGYTMYNEKFKGKATLTADKSSSTAYMQLNSLTSEDSAVHFCARAFHALDYWGQGTSVTVSS
VL: B1 VL with I21F, S22T, V44I, A60S, I85T, F94L
For the molecule B2, the figures for the EC50 in assay [1], in assay [3] and in assay [2] were 0.67 nM, 1.2 nM and 1.18 nM, respectively. For the same molecule, the entries for the “Top MFI” value in assay [1], in assay [3] and in assay [2] were 475 MFI, 1570 MFI and 1010 MFI, respectively.

B3: 48B6D7 mouse hybridoma-derived anti-DLL3 chimeric antibody (antibody, V domains shown)
VH: QVQLQQPGAELVKPGTSVKLSCEASGYTFSNYWMQWVRQRPGQGLEWIGMILPNSDITNYNENFQTKATLTVDKSSSTAYMQLSSLTSEDSAVYYCARQARYSAMDYWGQGTSVTVSS
VL: B1 VL with A13V, S22N, S53N, A60S, I85T, Q90H
For B3, in assay [1], the EC50 was found to be 0.53 nM and the “Top MFI” value came to 480 MFI. For the same molecule, in assay [2], the EC50 is 0.65 nM and the “Top MFI” value was found to be 990 MFI.

B4: 27E10C5 mouse hybridoma-derived anti-DLL3 chimeric antibody (antibody, V domains shown)
VH: QVQLQQSGAELVKPGASVKISCKASGYAFSSQWMNWVKQRPGKGLEWIGQIYPGNGDTNYNGKFKGKATLTADKSSSTAYIQLSSLTSEDSAVYFCARWFAYWGQGTLVTVSA
VL: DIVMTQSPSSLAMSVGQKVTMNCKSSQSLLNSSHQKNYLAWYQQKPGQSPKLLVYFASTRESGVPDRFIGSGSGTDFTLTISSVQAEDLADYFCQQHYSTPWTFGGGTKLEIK
Regarding B4, in assay [1], the midpoint of the response, the EC50, lay at 1.39 nM and the “Top MFI” value turned out to be 396 MFI. Also, in assay [2], a half-maximal effect (EC50) was put at 1.2 nM and the “Top MFI” value was 813 MFI.

B5: 39E2D11-1 mouse hybridoma-derived anti-DLL3 chimeric antibody (antibody, V domains shown)
VH: QVQLQQSGAELVKPGASVKMSCKASGYTFISYWITWVKQRPGQGLEWIGDIYPGSGSTTNYNEKFKSKATLTVDTSSSTAYMQLSSLTSEDSAVYYCARETTVGGAYAMDYWGQGTSVTVSS
VL: DIVLTQSPATLSVTPGDSVSLSCRASQSINNNLHWYQQKSHESPRLLIKYVSQSISGIPSRFSGSGSGTDFTLTINSVETEDFGMYFCQQTNSWPLTFGAGTKLELK
With B5, the concentration for a half-maximal effect (EC50) was determined as 1.03 nM in assay [1], 1.49 nM in assay [3] and 0.85 nM in assay [2]. Also, the “Top MFI” value stood at 445 MFI in assay [1], 1650 MFI in assay [3] and 999 MFI in assay [2].

B6: 45E4D7 mouse hybridoma-derived anti-DLL3 chimeric antibody (antibody, V domains shown)
VH: QVQLQQPGAELVKPGTSVKLSCKASGYTFTSHWITWVKQRPGQGLEWIGDIYPISGSTNNNEKFRNKATLTVDTSSSTAYMQLSSLTSEDSAVYFCAKIITVGGAYVMDYWGQGTSVTVSS
VL: B5 VL with A9V, I29V, N30R, T74S, M85V, T91S
As to B6, the EC50 turned out to be 0.71 nM in assay [1], 0.894 nM in assay [3] and 0.68 nM in assay [2]. Also, the “Top MFI” value in assay [1] was determined as 454 MFI; in assay [3], 1560 MFI; in assay [2], 965 MFI.

B7: H1-45E4D7 mouse hybridoma-derived humanized anti-DLL3 antibody (antibody, V domains shown)
VH: QVQLVQSGAEVKKPGASVKVSCKASGYTFTSHWITWVRQAPGQGLEWMGDIYPISGSTNNNEKFRNRVTMTRDTSTSTVYMELSSLRSEDTAVYYCAKIITVGGAYVMDYWGQGTLVTVSS
VL: EIVMTQSPATLSVSPGERATLSCRASQSVRNNLHWYQQKPGQAPRLLIYYVSQSISGIPARFSGSGSGTEFTLTISSLQSEDFAVYYCQQSNSWPLTFGGGTKLEIK
For B7, in assay [3], a half-maximal response (EC50) required 5.16 nM and the “Top MFI” value was determined as 1590 MFI.

Values taken from US20240239878A1 (SHANGHAI QILU PHARMACEUTICAL RESEARCH AND DEVELOPMENT CENTRE, published 2024).
